Reference: the DeepSol protein solubility set

assay: soluble on expression in E. coli; label from the status in PepcDB or PDB records

Row | Sequence | soluble on expression in E. coli
1 | MGSDKIHHHHHHMDKELDLAVTCYGKVKPLKYDLVLLPWGATEPHNLHLPYLTDCILSHDIALDAAKLAKTHYGIRCMVMPYVTAGSQNPGQRELDFCIHYRYETQKAILSDLVASLYAQGYRKMVIINGHGGNTFKSMIRDLSLDYPDFLIASSEWFAFIPAKEYFDEPGDHADELETSVMMHYHPELVNLDEAGDGNYKKFASQMLNEKVAWIPRNWQNVSQDTGIGNPKKASAGKGKKYAEAVVAKYALLFEELVHKELY | not soluble
2 | MSYLDTATDLPNQTLFLEYLNIALSNARRHHAQVGVLLCQINNWSDLKRKRGDAVANAFLQEAGQKLKSNLRNGDIVSRWDKDEFIFLVSKVQDTSSLLGIAQRLMKPVLAPVTAGGRPFQPEITYGVALYPVDGEQVNDLIGHIRENLQQLLPQPTNPGSGLEHHHHHH | soluble
3 | MSLDQPLTFYGLKSMSGAFASYGKYADMGSRLAIAEHPQLLGHPLKYKVIDTEGNAGKAVRKVQEAIGQDGARFFQGCTLSSSALAVSKEIHKAGGVFMTPVGADEITGKDCNASTFRWSVPTYGAIRETLVPMSRQLPQAKRWYTITPQYVFGDALLDNARKVFAELGVEHIGNSYHSLQEQEFSGYLTNAIAAKPDVLVLLNFGSQASNALRQAVNFGIKDRMKVLMVWSAGLDQFQELGSDVLEGVYLGAQYWHQVDTPLNKLLVAATRKAYGINPNYPLAADYIGTKVMLEAIVKAGSLDGAAVSAALQGMRFQGPTGEELIRPGDHQVLKDYYLLRGKPQGQMRDEDDLAEVISSGRSFVEVDHTGCALAEGHHHHHH | soluble
4 | MATVQVDIVTPERKVFQGEADIVIARGVEGELGVMAGHIPLVTPLKTAPVRIKQGDKETLIAVSGGFLEVRPDKVNILADTAELPEEIDVERAKKAKARHETILKRLDKTDKDYLRHKRALERAEVRLQVANSKS | soluble
5 | MGSDKIHHHHHHMNMFLGEGWQVKPAGGATGEAYIAEQGEQRLFLKRNSSPFLAVLSAEGIVPKLLWTKRLENGDVITAQRWVYGRELKAFEMKEPNVAHLLAKIHHSVELLDMFKRMGNDMLTPQRIIDDLKASMKRHECDDLLFQKGLKFLQTQQEAVNQEQYVVCHCDINHNNWMMSDAGELYLIDWDGATVADPALDLGLLLYSYVPRHEWKTWLANYGLEMSDHLLLRMHWYVVSQTISVMLSNMDRGKHAEAETWQDFLKTLLDDSF | not soluble
6 | MFKTIDTNQKDVKLTVFSSDEKSFMVTATLVEKAGHAFLINSKFTQSDSKEIVEYLKKNNLSLDKIFIIHGDPDYYFGLESIKAVYPEAIAYATESTVEHIVHSVLGKLKVWKDALGENAPSNVVLPQVFKEKAIDFQGLTFELVGLEHYRTSLFNKELKVLIGGIDVFNEIHVFLADTSSKAAMEAWIENLKVLQALHADIIVPSHGSIEKSLNNQALTATMDYLRTAVQASEESGTSKDFVAKLEAAYPDYANKGVLELSAKVVTKEMPWGLEHHHHHH | soluble
7 | MVQISDLPRDLTEEVLSRIPVTSMRAVRFTCKKWNTLSKDRSFTKKHLRGARAAAKKKQTKEFQVIMMIQFRVYLYSVNLLNPSIERIGKLISLDVEDHVDISKIFHCGGLLLCITKDISRLVVWNPYSGQTRWIKPRNSYHRLDRYALGYEEKNKSCRCYKILRFMDDYEDDRALRLIREFEIYDLNSDSWKVVNVTPDWDVEFYHRGLSLKGNTYWFAQEKLPPLPRGRVITISDMADFLLCFDFTRERFGPRLPLPFHSFVEDTVTLSSVRDKKLAVLFQPCSASTVKIWISRKIEPNAVSWRKVFLAVDMKSLTGFQFDINAASFFVDEKKKVAMVLDKDRFSYKFTRNIAYIIGKKGYFEKVDLGESTVSSCASLVCSYVPSSVQI | soluble
8 | KQAQVDYLALPGDAKLDTRSVDYKCENGRKFTVQYLNKGDNSLAVVPVSDNSTLVFSNVISASGAKYAAGQYIWWTKGEEATLYGDWKGGEPTDGVACKER | soluble
9 | GPGSMVVAVYPGTFDPLTRGHEDLVRRASSIFDTLVVGVADSRAKKPFFSLEERLKIANEVLGHYPNVKVMGFTGLLKDFVRANDARVIVRGLRAVSDFEYEFQMAGMNRYLLPDVETMFMTPSDQYQFISGTIVREIAQLGGDVSKFVFPSVEKWLTEKVAAMAQGPSA | soluble
10 | MGSDKIHHHHHHMKGQLFVICGPSGAGKTSIIKEVLKRLDNVVFSVSCTTRPKRPHEEDGKDYFFITEEEFLKRVERGEFLEWARVHGHLYGTLRSFVESHINEGKDVVLDIDVQGALSVKKKYSNTVFIYVAPPSYADLRERILKRGTEKEADVLVRLENAKWELMFMDEFDYIVVNENLEDAVEMVVSIVRSERAKVTRNQDKIERFKMEVKGWKKL | not soluble
11 | MSLTKAQDHDAAVLYGYFRSSASYRVRIALNLKNIIVAQRYVHLRNGEQNLEAFRWINPAGMVPYWSEGEFNLGQSLAIIEYLDETHPEPPLLPKDPKARAIVREIAYAVACDIHPIGNLRILKRLTELGVDEVDRARWSKEWVEQGFAAIEARLAQTPGPFAYGDRPTLADICIVPQIFNARRFDADLAPFERIRQIEAEAMKLDAFVAAEPGRQPDAEGHHHHHH | soluble
12 | GAFGWEQDRGAPFSGRSPRILTRMTDAPRPTAGADAPARPPAAPLVAPNFITEIIERDLEAGKYPRVVTRFPPDPSGYAHLGHVFASLLDFNTARQYGGQFNLRMDDTNPELARQEYVDSIADDLKWLGLDWGEHFYYASDYFDRYYAYAEQLIRQGDAYVESVSPEELSRLRGNATTPGTPSPYRDRSVEENLDLLRRMKAGEFADGEHVLRAKIDLTAPNMKLRDPVLYRIVNKPHFRTSDEWHIYPAYDFEHPLQDAIEGVTHSMCSLEFVDNRAIYDWLMEKLNFDPRPHQYEFGRRGLEYTITSKRKLRELVQAGRVSGWDDPRMPTLRAQRRLGVTPEAVRAFAAQIGVSRTNRTVDIAVYENAVRDDLNHRAPRVMAVLDPVKVTLTNLDGEKTLSLPYWPHDVVRDSPDGLVGMPGGGRVAPEEAVRDVPLTRELYIERDDFSPAPPKGFKRLTPGGTVRLRGAGIIRADDFGTDEAGQVTHIRATLLGEDAKAAGVIHWVSAERALPAEFRLYDRLFRVPHPEGENADVEDDSAGPAEHEAEPGAGQETAPVSQGFMRYLTPDSLRVLRGYVEPSVAGDPADTRYQFERQGYFWRDPVELERVDSREDALVFGRIITLKDTWGKQGGGTQQKAEGKKRPSTKGRGPDEVRGEGSSSPAKAHAPKAQPLTPEQDAEFTRLLGLGASEGDARTIARDPALLAFVGGAAPGDTFAQVASWTVNELVAGLRAGEVKVRAADLAPLAEGVASGQLSARIAREALARAAASGDAPLTIIEREGLNAGLSAEALQQVVAQVIAANPDKAEAYRGGKTALLGFFTGQVMRATAGKADPQALAAALKDALA | soluble
13 | MTKSYDVWWQKGQESDDDMARDHQEAWERTIEMLDTSDIKGKTILDVGCNQGGFLRKLYDTTPFKEGVGIDLARLSLEKAETLKGERPLTYYLTDKPQETNRTFDTAVSTSVLYLIEDIPQHAQDLKEVLKPGGVYYASFADLTNNPSRQFMDDTINQYGATPSQNHSLKHIVDSFVDAGFEVAVMKEPVPDVIDLTHYSDFYLSPNDYLQTLYEESFLIKASVKEGIGKLEHHHHHH | soluble
14 | MRVRNRKGATELLEANPQYVVLNPLEAKAKWRDLFGNDNPIHVEVGSGKGAFVSGMAKQNPDINYIGIDIQKSVLSYALDKVLEVGVPNIKLLWVDGSDLTDYFEDGEIDRLYLNFSDPWPKKRHEKRRLTYKTFLDTFKRILPENGEIHFKTDNRGLFEYSLVSFSQYGMKLNGVWLDLHASDFEGNVMTEYEQKFSNKGQVIYRVEAEF | soluble
15 | MGSDKIHHHHHHMSESAESVELIKLPVSQLTLGMFVSAIDKNDKGQLAIANAGQIKHKDAILKLAKSGIKFVWVDAERSAEHCGLKKKTTNDSQTDNRKAPVSRDKQQAQAKVMLTEAKDLIRKVLSETFEGKAIEVAPFEALADTMIESVMLDADALKCMSALRSKDAYLLEHSVNVAFLLVTFGKYLQLDRDMLRQMAVGGILHDIGKIKVDNKVLHKPGKLTPEEFEHMKLHQVYELEIMNETTGLSQISKDICLMHHEKLDGRGYPRGLKDDEIPRHGRMSCIVDIFDALTATRCYKEAMSPAAAFKILLSLTPFHLDQQLVYEFIRCIGIYPVGSLVELSDGRIGIVWASKDRDALHPIVKCFYSLKVKRYTDVAMVDLLKSELYIERGVSPSSLDIDPTPFY | not soluble
16 | MQLPPVHSVSLSEYFVSGNVIIHETAVIAPGVILEAAPDCQITIEAGVCIGLGSVISAHAGDVKIQEQTAIAPGCLVIGPVTIGATACLGSRSTVFQQDIDAQVLIPPGSLLMNRVADVQTVGASSPTTDSVTEKKSPSTANPIAPIPSPWDNEPPAKGTDSPSDQAKESIARQSRPSTAEAAEQISSNRSPGESTPTAPTVVTTAPLVSEEVQEKPPVVGQVYINQLLLTLFPERRYFSS | not soluble
17 | MQKIDLGNNESLVCGVFPNQDGTFTAMTYTKSKTFKTETGARRWLEKHTVS | soluble
18 | MAHHHHHHMTMAVDSHDPSVRYLFFEEQRQQKQQKQQVPVDGTSSGSLPLLYSARPACHPVDDVRSAAALRRITEGFLNLDQQMKMWRRHLHRKLGNLESRLSRCESVLLQKKTPVPQPAVVKASTTTYNDIYDGVEDEFKRLHLTVTALREKAAECCRDGQSFFPPKRQGKKGKGEPAGKHAMCDDEDVSIEGGGVFDSHCEHVGVAKRMSPTADTTAVGSGESVGLTPDGAEMPSACLFLGETVVDGDWQHVEGMQPREASCCLYKLQNQSSFQPTPSFSTMTPVSEQKYFAMDSTCRHDWSPFIHEPCRPEKRIVRGGKPATMDKTPTNVPDLRMRSTATTTQEKCCEINESPLVQASSLERRLIYSPETPKRMQGQVSPVPSDAARSASSSTKRGMEIPLSNADSVEHLHNLAEPALSSKPVTNGQKRPDATPSSQHGGAFVDAFASAVAGVPSSSPLYVLPQQIYSSRGNSCDRSSEWDNTEDEEKASESSNEEVLSAVALSMPTVGTVWQRVVSLAHAEQYYDQLSRLNHPPLSMLSSDTLEISELTVQET | not soluble
19 | KRAVDARTVGRMIRMSGCPDESASAKAVDWFVLMFMLRGIPFVDLAHLRRSNLDKGVLTYCRHKTGQEVSISVPREAMEIINRRMVENCHPSYLLPILGQPRTRKRHTKKALTPYQEYQYALRNLNRRLERVSVDLRLGGRLSSYTARHTWATIAFHQETPVGVISRGLGHSSVKVTETYLKPFGDREVDRTNRKILNYVLNAV | not soluble
20 | MSLKKIGVLGMGYVGIPAAVLFADAPCFEKVLGFQRNSKSSGYKIEMLNRGESPLKGEEPGLEELIGKVVKAGKFECTPDFSRISELDAVTLAIQTPFANPKDLEPDFSALIDGIRNVGKYLKPGMLVVLESTITPGTTEGMAKQILEEESGLKAGEDFALAHAPERVMVGRLLKNIREHDRIVGGIDEASTKRAVELYSPVLTVGQVIPMSATAAEVTKTAENTFRDLQIAAINQLALYCEAMGINVYDVRTGVDSLKGEGITRAVLWPGAGVGGHCLTKDTYHLERGVKIGRGELDYPEGADSIYVLARKVNDFMPAHMYNLTVAALERLGKKMDGSKVAMLGWAFIKDSDDARNTPSEPYRDLCLKAGASVMVHDPYVVNYPGVEISDNLEEVVRNADAIVVLAGHSAYSSLKADWAKKVSAKANPVIIDGRNVIEPDEFIGKGFVYKGIGRGDKNSHKIKEGHHHHHH | soluble
21 | GVFTYESEFTSEIPPPRLFKAFVLDADNLVPKIAPQAIKHSEILEGDGGPGTIKKITFGEGSQYGYVKHKIDSIDKENYSYSYTLIEGDALGDTLEKISYETKLVASPSGGSIIKSTSHYHTKGNVEIKEEHVKAGKEKASNLFKLIETYLKGHPDAYN | soluble
